These results are taken from patent US20100145007A1 (Janssen / Centocor, published 2010).

Assay [1] concerns the target T1, human LGR7 (human, UniProt Q9HBX9 1-757).
T1 construct: whole, on cells; also called relaxin receptor
T1 sequence (looked up): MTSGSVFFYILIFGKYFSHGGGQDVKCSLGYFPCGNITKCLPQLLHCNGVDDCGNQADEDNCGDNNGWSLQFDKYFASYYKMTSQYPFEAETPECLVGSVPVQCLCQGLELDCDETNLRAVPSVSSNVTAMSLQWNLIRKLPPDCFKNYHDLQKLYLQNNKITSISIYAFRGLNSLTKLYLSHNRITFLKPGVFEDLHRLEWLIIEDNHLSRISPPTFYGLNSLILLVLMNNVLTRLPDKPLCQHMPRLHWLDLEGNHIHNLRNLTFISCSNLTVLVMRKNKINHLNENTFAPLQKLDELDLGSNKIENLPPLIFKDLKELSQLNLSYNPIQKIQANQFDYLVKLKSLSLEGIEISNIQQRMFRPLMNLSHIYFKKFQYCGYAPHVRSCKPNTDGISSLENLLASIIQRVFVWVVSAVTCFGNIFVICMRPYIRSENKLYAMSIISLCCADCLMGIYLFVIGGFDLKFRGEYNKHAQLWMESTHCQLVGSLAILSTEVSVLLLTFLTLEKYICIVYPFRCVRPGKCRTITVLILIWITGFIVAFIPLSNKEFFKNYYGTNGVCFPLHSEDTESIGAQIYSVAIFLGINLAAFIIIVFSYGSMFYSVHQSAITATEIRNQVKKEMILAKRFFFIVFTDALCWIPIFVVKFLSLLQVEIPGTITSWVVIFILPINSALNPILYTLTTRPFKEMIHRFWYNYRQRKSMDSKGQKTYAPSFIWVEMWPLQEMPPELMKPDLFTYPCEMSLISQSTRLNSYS
The assay is described as follows: radioligand competition, 50 pM 125I-relaxin-2 tracer, COS-7 cells transiently expressing human LGR7; NA = no affinity was observed in radioligand binding assay. The text has this: (§1) COS-7 cells in 24-well tissue culture plates transiently expressing GPCR135, GPCR142 or LGR7 were used in radioligand binding assays as described by Liu et al., 2005a, J. Biol. Chem., 280:292-300. ¹²⁵I-Relaxin-3/INSL5 (¹²⁵I-R3/I5), a radiolabeled chimeric peptide with the human relaxin-3 B-chain and the human INSL5 A-chain (Liu et al., 2005b), was used at a final concentration of 50 pM as the tracer to characterize the binding properties of all truncated relaxin-3 peptides for GPCR135 and GPCR142. ¹²⁵I-relaxin-2 (PerkinElmer Biosciences, Boston) was used at a final concentration of 50 pM to characterize the binding properties of the truncated peptides for the relaxin receptor (LGR7). The results were analyzed by GraphPad Prism 4.0 software (Graphpad, San Diego). The IC₅₀ values, which are the ligand concentrations that inhibited 50% of the maximum specific binding, were then calculated.
A general note: Loss of bound radioactivity is the signal in a displacement assay; it reports binding, not function.

A further assay concerns the target T2, human GPCR142 (human, UniProt Q8TDU9 1-374).
T2 construct: whole, on cells
The assay is described as follows: radioligand competition, 50 pM 125I-R3/I5 tracer, COS-7 cells transiently expressing human GPCR142.
Description: as §1

For assay [2], the target named is T3, rat GPCR135 (rat, UniProt Q5Y987 29-469). The assay is described as follows: autoradiography, displacement of 125I-R3/I5 from endogenous GPCR135 in rat brain sections.
T3 sequence (Q5Y987 entry or part of it): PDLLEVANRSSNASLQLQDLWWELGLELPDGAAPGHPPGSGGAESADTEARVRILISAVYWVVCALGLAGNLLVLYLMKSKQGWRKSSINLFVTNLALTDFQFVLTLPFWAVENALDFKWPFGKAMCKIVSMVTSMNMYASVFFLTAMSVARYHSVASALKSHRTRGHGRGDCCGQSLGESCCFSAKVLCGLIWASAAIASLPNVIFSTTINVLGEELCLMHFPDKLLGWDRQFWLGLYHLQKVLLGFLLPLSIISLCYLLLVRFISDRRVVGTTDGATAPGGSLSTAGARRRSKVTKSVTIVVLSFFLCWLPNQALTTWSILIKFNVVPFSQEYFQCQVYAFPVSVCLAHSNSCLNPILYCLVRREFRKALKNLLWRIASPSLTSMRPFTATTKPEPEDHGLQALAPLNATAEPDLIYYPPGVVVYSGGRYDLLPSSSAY
Assay [3] deals with T3, rat GPCR135. Description: radioligand competition, 125I-R3/I5 tracer, COS-7 cells transiently expressing recombinant rat GPCR135.
A further assay has as its target T4, human GPCR135 (human, UniProt Q9NSD7 1-469).
T4 construct: whole, on cells; also called SALPR
T4 sequence (looked up): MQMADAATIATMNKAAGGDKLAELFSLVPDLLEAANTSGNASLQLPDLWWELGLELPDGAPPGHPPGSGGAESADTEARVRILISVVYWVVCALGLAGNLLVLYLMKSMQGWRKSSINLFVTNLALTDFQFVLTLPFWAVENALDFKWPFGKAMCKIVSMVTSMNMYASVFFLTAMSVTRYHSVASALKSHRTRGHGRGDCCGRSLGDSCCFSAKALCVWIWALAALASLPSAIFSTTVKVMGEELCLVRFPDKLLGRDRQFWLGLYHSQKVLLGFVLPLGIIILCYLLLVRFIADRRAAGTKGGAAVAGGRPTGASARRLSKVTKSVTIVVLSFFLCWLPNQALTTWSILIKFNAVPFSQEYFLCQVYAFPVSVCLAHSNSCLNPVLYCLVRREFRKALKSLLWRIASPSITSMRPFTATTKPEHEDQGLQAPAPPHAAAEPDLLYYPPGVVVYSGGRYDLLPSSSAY
The assay is described as follows: radioligand competition, 50 pM 125I-R3/I5 tracer, COS-7 cells transiently expressing human GPCR135.
Description: as §1

Another assay concerns the target T5, rat LGR7 (rat, UniProt Q6R6I6 1-758).
T5 construct: whole, on cells; also called recombinant rat LGR7
T5 sequence (looked up): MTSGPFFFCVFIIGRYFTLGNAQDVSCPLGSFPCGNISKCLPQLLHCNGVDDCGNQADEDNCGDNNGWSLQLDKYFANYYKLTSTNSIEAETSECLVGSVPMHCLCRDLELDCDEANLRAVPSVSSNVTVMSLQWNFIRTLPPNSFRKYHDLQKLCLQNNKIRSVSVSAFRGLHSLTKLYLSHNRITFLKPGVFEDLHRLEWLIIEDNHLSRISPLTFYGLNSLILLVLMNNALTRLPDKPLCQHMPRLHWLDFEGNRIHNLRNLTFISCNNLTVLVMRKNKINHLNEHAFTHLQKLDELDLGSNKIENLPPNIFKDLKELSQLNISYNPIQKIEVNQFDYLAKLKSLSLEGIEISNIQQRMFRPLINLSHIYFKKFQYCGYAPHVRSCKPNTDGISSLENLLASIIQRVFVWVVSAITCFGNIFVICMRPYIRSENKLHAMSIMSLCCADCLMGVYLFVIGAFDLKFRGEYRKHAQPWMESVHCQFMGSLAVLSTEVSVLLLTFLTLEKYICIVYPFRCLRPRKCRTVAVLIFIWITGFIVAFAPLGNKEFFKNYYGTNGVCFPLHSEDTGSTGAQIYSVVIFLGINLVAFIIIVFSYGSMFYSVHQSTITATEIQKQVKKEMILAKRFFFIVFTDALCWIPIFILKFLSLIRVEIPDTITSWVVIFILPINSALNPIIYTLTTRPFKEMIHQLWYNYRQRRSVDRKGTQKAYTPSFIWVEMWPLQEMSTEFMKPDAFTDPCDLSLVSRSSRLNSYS
Description: radioligand competition, 125I-relaxin-2 tracer, COS-7 cells transiently expressing rat LGR7.
Description: FIG. 3 illustrates that R3(BΔ23-27)R/I5 is bound by recombinant rat GPCR135 with high affinity, but not by rat LGR7. COS-7 cells transiently expressing recombinant rat GPCR135 or LGR7 were used to characterize the binding affinity of rat GPCR135 (A) and LGR7 for (B) R3(BΔ23-27)R/I5. ¹²⁵I-R3/I5 was used as the tracer for GPCR135 and ¹²⁵I-relaxin-2 was used as the tracer for LGR7 binding. Various concentrations of R3(BΔ23-27)R/I5 were used as the competitor and unlabeled human relaxin-3 was used as the positive control in the binding assay.
as §1, with “The IC₅₀ values, which are the ligand concentrations that inhibited 50% of the maximum specific binding, were then calculated.” left out

Assay [4] deals with T1, human LGR7. The assay is described as follows: cell-based or functional assay.
Assay [5] deals with T1, human LGR7. The assay is described as follows: radioligand competition, 50 pM 125I-relaxin-2 tracer, COS-7 cells transiently expressing human LGR7.
Description: as §1

T2 sequence (Q8TDU9 whole entry): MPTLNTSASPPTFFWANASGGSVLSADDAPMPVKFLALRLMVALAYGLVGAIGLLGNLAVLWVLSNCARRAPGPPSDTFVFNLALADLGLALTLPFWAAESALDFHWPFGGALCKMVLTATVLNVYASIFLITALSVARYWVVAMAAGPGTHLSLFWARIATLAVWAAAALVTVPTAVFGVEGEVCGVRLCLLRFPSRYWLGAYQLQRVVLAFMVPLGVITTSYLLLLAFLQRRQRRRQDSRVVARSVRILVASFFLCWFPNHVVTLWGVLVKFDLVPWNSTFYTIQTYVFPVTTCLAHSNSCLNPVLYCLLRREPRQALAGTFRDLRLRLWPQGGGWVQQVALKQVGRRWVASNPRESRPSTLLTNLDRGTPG

B1: R3(BΔ23-27)R/I5 (peptide)
chain 1: RAAPYGVRLCGREFIRAVIFTCR
chain 2: EDLQTLCCTDGCSMTDLSALC
modifications: N-terminal pyro-Glu ("<E")
notes: Chimeric two-chain peptide; also called R3(Δ23-27)R/I5; R3(ΔB23-27)R/I5
On to B1, for which the binding result with human LGR7 [1] and with rat LGR7 was “no binding” each time. In addition, the IC50 (usually the concentration at which inhibition is half-maximal) was 2.29 nM with human GPCR142, 0.4 nM with rat GPCR135 [2], 0.25 nM with rat GPCR135 [3] and 0.67 nM with human GPCR135.

B2: R3(BΔ25-27) (peptide)
chain 1: RAAPYGVRLCGREFIRAVIFTCGG
chain 2: DVLAGLSSSCCKWGCSKSEISSLC
On to B2, for which the IC50 with human GPCR142 was 11.9 nM; with human LGR7 [5], 7.9 nM; with human GPCR135 it was 9.5 nM. In addition, the “EC50, stimulation of β-gal expression in SK-N-MC/CRE-β-gal cells expressing human LGR7” value (“EC50, stimulation of β-gal expression” below) with human LGR7 [4] was determined as 4.1 nM.

B3: R3(BΔ23-27)R (peptide)
chain 1: RAAPYGVRLCGREFIRAVIFTCR
chain 2: DVLAGLSSSCCKWGCSKSEISSLC
notes: probably a misprint
B3: the values for the half-inhibitory concentration (IC50) in the assay with human GPCR142, with human LGR7 [5] and with human GPCR135 were 3.91 nM, roughly 200 nM and 0.95 nM, respectively.

B4: R3(BΔ24-27) (peptide)
chain 1: RAAPYGVRLCGREFIRAVIFTCG
chain 2: DVLAGLSSSCCKWGCSKSEISSLC
For B4, the 50% inhibitory concentration (IC50) with human GPCR142 came to 18.9 nM; in the assay with human LGR7 [5] it was 8.9 nM; with human GPCR135 it was 13.5 nM. Besides, in the assay with human LGR7 [4], the “EC50, stimulation of β-gal expression” value is 4.3 nM.

B5: R3(BΔ26-27) (peptide)
chain 1: RAAPYGVRLCGREFIRAVIFTCGGS
chain 2: DVLAGLSSSCCKWGCSKSEISSLC
B5: the figures for the half-maximal inhibitory concentration (IC50) with human GPCR142, with human LGR7 [5] and with human GPCR135 were 9.5 nM, 6.3 nM and 11.5 nM, respectively. Further, the “EC50, stimulation of β-gal expression” value in the assay with human LGR7 [4] turned out to be 3.3 nM.
